# Test results from PMC7375805.
# Molecular target: AP2 FLAP (full-length β2 subunit AP2 complex, i.e. AP2 lacking the α appendage and the α hinge) (UniProt P18484)
# Test: cryo-EM structure; cryo-electron tomography and subtomogram averaging of AP2 FLAP on liposomes with PtdIns(4,5)P2 and TGN38 YxxΦ lipopeptide, no clathrin, HKM2 buffer; ~9 Å
substance,measurement,value
"AP2 FLAP (full-length β2 subunit AP2 complex, i.e. AP2 lacking the α appendage and the α hinge) (from UniProt P18484 1-621; P63010 1-937; P84092 1-435; P62743 1-142)",percent of AP2 dimerized,20%
same,stoichiometry N,2
